B1: Subtilisin-chymotrypsin inhibitor-2A, P01053 (parent)
chain: MSSVEKKPEGVNTGAGDRHNLKTEWPELVGKSVEEAKKVILQDKPEAQIIVLPVGTIVTMEYRIDRVRLFVDKLDNIAQVPRVG

Variants of: B1
Conditions: Hordeum vulgare, pH 6.3, Thermal, Fluorescence, phosphate 10 mM, reversible: yes, structure 2CI2, whole UniProt chain shown; for ddG of mutation (higher = less stable): 46.6 °C

MSSVEKKPEGVNTGAGDRHNLKTEWPEAVGKSVEEAKKVILQDKPEAQIIVLPVGTIVTMEYRIDRVRLFVDKLDNIAQVPRVG [L28A]
ddG of mutation (higher = less stable): 2.68 kcal/mol | Tm: 24.1 °C | change of melting temperature, mutant - wild type (higher = more stable): -22.5 °C | unfolding enthalpy (van 't Hoff): 34.6 kcal/mol

MSSVEKKPEGVNTGAGDRHNLKTEWPELVGKSVEEAKKVVLQDKPEAQIIVLPVGTIVTMEYRIDRVRLFVDKLDNIAQVPRVG [I40V]
ddG of mutation (higher = less stable): 1.3 kcal/mol | Tm: 31.8 °C | change of melting temperature, mutant - wild type (higher = more stable): -14.8 °C | unfolding enthalpy (van 't Hoff): 26.3 kcal/mol

MSSVEKKPEGVNTGAGDRHNLKTEWPELVGKSVAAAKKVILQDKPEAQIIVLPVGTIVTMEYRIDRVRLFVDKLDNIAQVPRVG [E34A E35A]
ddG of mutation (higher = less stable): 0.76 kcal/mol

MSSVEKKPEGVNTGAGDRHNLKTEWPELVGKSVEEAAKVILQDKPEAQIIVLPVGTIVTMEYRIDRVRLFVDKLDNIAQVPRVG [K37A]
ddG of mutation (higher = less stable): 0.49 kcal/mol | Tm: 34 °C | change of melting temperature, mutant - wild type (higher = more stable): -12.6 °C | unfolding enthalpy (van 't Hoff): 27.2 kcal/mol

MSSVEKKPEGVNTGAGDRHNLKTEWPELVGKSVEEAKGVILQDKPEAQIIVLPVGTIVTMEYRIDRVRLFVDKLDNIAQVPRVG [K38G]
ddG of mutation (higher = less stable): 0.97 kcal/mol | Tm: 35.8 °C | change of melting temperature, mutant - wild type (higher = more stable): -10.8 °C | unfolding enthalpy (van 't Hoff): 37.6 kcal/mol

MSSVEKKPEGVNTGAGDRHNLKTEWPELVGKSVEEAKAVILQDKPEAQIIVLPVGTIVTMEYRIDRVRLFVDKLDNIAQVPRVG [K38A]
ddG of mutation (higher = less stable): -0.23 kcal/mol | Tm: 41.4 °C | change of melting temperature, mutant - wild type (higher = more stable): -5.2 °C | unfolding enthalpy (van 't Hoff): 34.8 kcal/mol

MSSVEKKPEGVNTGAGDRHNLKTEWPELVGKAVEEAKKVILQDKPEAQIIVLPVGTIVTMEYRIDRVRLFVDKLDNIAQVPRVG [S32A]
ddG of mutation (higher = less stable): 0.89 kcal/mol | Tm: 38.2 °C | change of melting temperature, mutant - wild type (higher = more stable): -8.4 °C | unfolding enthalpy (van 't Hoff): 35.4 kcal/mol

MSSVEKKPEGVNTGAGDRHNLKTEWPELVGKSVEEAKKVILQDKPEAQIIVLPVGTIVTMEYRIDRVRLFVDKLDNVAQVPRVG [I77V]
ddG of mutation (higher = less stable): -0.19 kcal/mol | Tm: 47.7 °C | change of melting temperature, mutant - wild type (higher = more stable): 1.1 °C | unfolding enthalpy (van 't Hoff): 34.6 kcal/mol

MSSVEKKPEGVNTGAGDRHNLKTEWPELVGKSVEEAKKVILQDKPEAQIIVLPVGTIVTMEYRIDRVRLLVDKLDNIAQVPRVG [F70L]
ddG of mutation (higher = less stable): 2.11 kcal/mol | Tm: 32.5 °C | change of melting temperature, mutant - wild type (higher = more stable): -14.1 °C | unfolding enthalpy (van 't Hoff): 27.5 kcal/mol

MSSVEKKPEGVNTGAGDRHNLKTEWPELVGKSVEEAKKVILQDKPEAQIIVLPAGTIVTMEYRIDRVRLFVDKLDNIAQVPRVG [V54A]
ddG of mutation (higher = less stable): 0.63 kcal/mol | Tm: 43.8 °C | change of melting temperature, mutant - wild type (higher = more stable): -2.8 °C | unfolding enthalpy (van 't Hoff): 40.5 kcal/mol

MSSVEKKPEGVNTGAGDRHNLKTEWPELVGKSVEEAKKVILQDKPEAQIIVLPTGTIVTMEYRIDRVRLFVDKLDNIAQVPRVG [V54T]
ddG of mutation (higher = less stable): 1.03 kcal/mol

MSSVEKKPEGVNTGAGDRHNLKTEWPELVGKAVAAAKKVILQDKPEAQIIVLPVGTIVTMEYRIDRVRLFVDKLDNIAQVPRVG [S32A E34A E35A]
ddG of mutation (higher = less stable): 1.67 kcal/mol

MSSVEKKPEGVNTGAGDRHNLKTEWPELVGKSVEEAKKVILQDKPEAQVIVLPVGTIVTMEYRIDRVRLFVDKLDNIAQVPRVG [I49V]
ddG of mutation (higher = less stable): 1.11 kcal/mol | Tm: 39.4 °C | change of melting temperature, mutant - wild type (higher = more stable): -7.2 °C | unfolding enthalpy (van 't Hoff): 27.8 kcal/mol

MSSVEKKPEGVNTGAGDRHNLKTEWPELVGKSVEEAKKVILQDKPEAQIVVLPVGTIVTMEYRIDRVRLFVDKLDNIAQVPRVG [I50V]
ddG of mutation (higher = less stable): -0.08 kcal/mol | Tm: 48 °C | change of melting temperature, mutant - wild type (higher = more stable): 1.4 °C | unfolding enthalpy (van 't Hoff): 50.9 kcal/mol

MSSVEKKPEGVNTGAGDRHNLKTEWPELVGKSVEEAKKVILQDKPEAQIAVLPVGTIVTMEYRIDRVRLFVDKLDNIAQVPRVG [I50A]
ddG of mutation (higher = less stable): 2.12 kcal/mol

MSSVEKKPEGVNTGAGDRHNLKTEWPELVGKSVEEAKKVILQDKPEAQIIVAPVGTIVTMEYRIDRVRLFVDKLDNIAQVPRVG [L52A]
ddG of mutation (higher = less stable): 2.37 kcal/mol | Tm: 37.5 °C | change of melting temperature, mutant - wild type (higher = more stable): -9.1 °C | unfolding enthalpy (van 't Hoff): 42.5 kcal/mol

MSSVEKKPEGVNTGAGDRHNLKTEWPELVGKSVEEAKKVILQDKPEAQIIVVPVGTIVTMEYRIDRVRLFVDKLDNIAQVPRVG [L52V]
ddG of mutation (higher = less stable): 0.5 kcal/mol | Tm: 46.1 °C | change of melting temperature, mutant - wild type (higher = more stable): -0.5 °C | unfolding enthalpy (van 't Hoff): 37.3 kcal/mol

MSSVEKKPEGVNTGAGDRHNLKTEWPELVGKSVEEAKKAILQDKPEAQIIVLPVGTIVTMEYRIDRVRLFVDKLDNIAQVPRVG [V39A]
ddG of mutation (higher = less stable): 0.48 kcal/mol | Tm: 41.9 °C | change of melting temperature, mutant - wild type (higher = more stable): -4.7 °C | unfolding enthalpy (van 't Hoff): 30 kcal/mol

MSSVEKKPEGVNTGAGDRHNLKTEWPELVGKSVEEAKKVILQDAPEAQIIVLPVGTIVTMEYRIDRVRLFVDKLDNIAQVPRVG [K44A]
Tm: 40.8 °C | change of melting temperature, mutant - wild type (higher = more stable): -5.8 °C | unfolding enthalpy (van 't Hoff): 24.6 kcal/mol

MSSVEKKPEGVNTGAGDRHNLKTEWPELVGKSVNEAKKVILQDKPEAQIIVLPVGTIVTMEYRIDRVRLFVDKLDNIAQVPRVG [E34N]
ddG of mutation (higher = less stable): 0.7 kcal/mol | Tm: 42.8 °C | change of melting temperature, mutant - wild type (higher = more stable): -3.8 °C | unfolding enthalpy (van 't Hoff): 36.1 kcal/mol

MSSVEKKPEGVNTGAGDRHNLKTEWPELVGKSVEEAKKVILQDKPEAQIIVLPVGTIVTMEYRIDRVRLFADKLDNIAQVPRVG [V71A]
ddG of mutation (higher = less stable): 1.95 kcal/mol | Tm: 29.8 °C | change of melting temperature, mutant - wild type (higher = more stable): -16.8 °C | unfolding enthalpy (van 't Hoff): 33.5 kcal/mol

MSSVEKKPEGVNTGAGDRHNLKAEWPELVGKSVEEAKKVILQDKPEAQIIVLPVGTIVTMEYRIDRVRLFVDKLDNIAQVPRVG [T23A]
ddG of mutation (higher = less stable): 0.85 kcal/mol | Tm: 43.7 °C | change of melting temperature, mutant - wild type (higher = more stable): -2.9 °C

From FireProtDB (doi:10.1021/bi00005a026)
